Five substances from paper PMC10269782 can be followed below.

The target in assay [1] is Nem1-3×Flag. The assay is described as follows: co-IP (GFP IP, anti-Flag western blot, band intensity quantified). The conditions noted are these: ΔSpo7::Nem1-Flag strain; parent: est. 100; read off a plot. On the technique in general: Immunoblotting shows a protein as a band on a membrane.
In assay [2] the target is Spo7^3R (co-IP construct) (Botryosphaeria dothidea). In words: co-IP; GFP and Flag fusion constructs transformed in pairs into B. dothidea LW03 (Spo7-Pah1 also in the ΔNem1 mutant); total proteins incubated with anti-GFP agarose; eluates blotted with anti-Flag and anti-GFP antibodies.
The target in assay [3] is Spo7^I52R (co-IP construct) (Botryosphaeria dothidea). The assay is described as above.
Assay [4] deals with Spo7^L50R (co-IP construct) (Botryosphaeria dothidea). Described as above.
The target of assay [5] is Spo7^L51R (co-IP construct) (Botryosphaeria dothidea). The assay is described as above.

As to GFP-Spo7 I52A, the percent of parent in assay [1] was 98%.
Regarding GFP-Spo7 L50A; L51A; I52A, in assay [1], the percent of parent stood at 97%.
For the substance Nem1-3×Flag (enzyme), the percent reduction of the interaction level against wild-type Spo7 (Nem1-Flag band in GFP IP) came to 93% in assay [2], 55% in assay [3], 72% in assay [4] and 68% in assay [5].
GFP-Spo7 L50A: the percent of parent in assay [1] amounted to 108%.
Same read-out and setting: the same measure for GFP-Spo7 L51A: 100%.
